We go through one molecule from EP3083697B1.

For test [1], the target named is ENO1 deletion mutant Δ1-189 (human) (UniProt P06733). The test is described as follows: ELISA, mutant protein coated, 10 microgram EN10 mAb. Background: An ELISA detects its analyte on a solid surface through an enzyme-linked reagent.
Test [2] concerns the target ENO1 deletion mutant Δ1-297 (human) (UniProt P06733). The description is as above.

B1: EN10 mAb (antibody, V domains shown)
VH: EVQLQQSGPELVKPGASVKMSCKASGYTFTSCVMNWVKQKPGQGLEWIGYINPYNDGTKYNEKFKGKATLTSDKSSSTAYMELSSLTSEDSAVYYCAREGFYYGNFDNWGQGTTLTVSS
VL: DIQMTQSPASLSASVGETVTITCRASENIYSYLTWYQQKQGKSPQLLVYNAKTLPEGVPSRFSGSGSGTQFSLKINSLQPEDFGSYYCQHHYGTPYTFGGGTKLEITR
Take B1: in test [1], the OD405 was determined as 1.43 OD405 and the percent of the OD405 of wild type ENO1 came out at 42%. In test [2], this molecule came in with an OD405 of 1.56 OD405 and a percent of the OD405 of wild type ENO1 of 39%.
